# Test results from patent publication US20240132578A1.
# Experiments:
# [1] = biological target: JR-FL gp120 ΔV1/ΔV2 (HIV-1 JR-FL); experiment: ELISA, antigen-coated wells, mAb titrated; EC50 by nonlinear regression
# [2] = biological target: HIV-1 envelope glycoprotein (Env) of isolate 92WR020, subtype A (HIV-1); experiment: cell-based or functional assay
# [3] = biological target: HIV-1 Env of isolate MGRM-AG-011 (pseudovirus) (HIV-1); experiment: cell-based or functional assay
# [4] = biological target: HIV-1 Env of isolate MGRM-F1-017 (pseudovirus) (HIV-1); experiment: cell-based or functional assay
# [5] = biological target: HIV-1 envelope glycoprotein (Env) of isolate MG RM-A-011, subtype A (HIV-1); experiment: cell-based or functional assay
# [6] = biological target: HIV-1 envelope glycoprotein (Env) of isolate MGRM-Chronic-B-002, on pseudovirus (HIV-1); experiment: cell-based or functional assay
# [7] = biological target: HIV-1 92TH021 envelope protein (Env) on pseudovirus (HIV-1); experiment: cell-based or functional assay
# [8] = biological target: HIV-1 envelope glycoprotein (Env) of isolate TRJO4551.58, on pseudovirus (HIV-1); experiment: cell-based or functional assay
# [9] = biological target: HIV-1 92TH021 Env (HIV-1); experiment: cell-based or functional assay
# [10] = biological target: HIV-1 Env of isolate MGRM-F1-018 (pseudovirus) (HIV-1); experiment: cell-based or functional assay
# [11] = biological target: HIV-1 Env of isolate MGRM-D-001 (pseudovirus) (HIV-1); experiment: cell-based or functional assay
# [12] = biological target: HIV-1 JR-CSF Env W395A (HIV-1 (isolate JR-CSF)) (UniProt P20871); experiment: cell-based or functional assay
# [13] = biological target: HIV-1 Env of isolate MGRM-AG-013 (subtype AG) (HIV-1); experiment: cell-based or functional assay
# [14] = biological target: HIV-1 Env of isolate MGRM-Chronic-B-001 (HIV-1); experiment: cell-based or functional assay
# [15] = biological target: HIV-1 Env of isolate MGRM-A-010 (subtype A) (HIV-1); experiment: cell-based or functional assay
# [16] = biological target: HIV-1 Env of isolate MGRM-AG-003 (subtype AG) (HIV-1); experiment: cell-based or functional assay
# [17] = biological target: HIV-1 Env of pseudovirus isolate MGRM-C-026 (clade C) (HIV-1); experiment: cell-based or functional assay
# [18] = biological target: HIV-1 Env of isolate MGRM-A-005 (pseudovirus) (HIV-1); experiment: cell-based or functional assay
# [19] = biological target: HIV-1 Env of pseudovirus isolate MGRM-C-012 (clade C) (HIV-1); experiment: cell-based or functional assay
# [20] = biological target: HIV-1 Env of isolate MGRM-Chronic-B-002 (HIV-1); experiment: cell-based or functional assay
# [21] = biological target: HIV-1 Env of isolate MGRM-AE-003 (subtype AE) (HIV-1); experiment: cell-based or functional assay
# [22] = biological target: HIV-1 Env of pseudovirus isolate MGRM-C-010 (clade C) (HIV-1); experiment: cell-based or functional assay
# [23] = biological target: HIV-1 Env of isolate MGRM-D-012 (pseudovirus) (HIV-1); experiment: cell-based or functional assay
# [24] = biological target: HIV-1 Env of isolate MGRM-F1-012 (HIV-1); experiment: cell-based or functional assay
# [25] = biological target: aMLV envelope (negative control pseudovirus) (aMLV); experiment: cell-based or functional assay
# [26] = biological target: HIV-1 Env of pseudovirus isolate JR-FL (clade B) (HIV-1); experiment: cell-based or functional assay
# [27] = biological target: HIV-1 Env of isolate MGRM-G-016 (subtype G) (HIV-1); experiment: cell-based or functional assay
# [28] = biological target: HIV-1 Env of isolate MGRM-D-004 (HIV-1); experiment: cell-based or functional assay
# [29] = biological target: HIV-1 Env of pseudovirus MGRM-F1-021 (HIV-1); experiment: cell-based or functional assay
# [30] = biological target: HIV-1 Env of pseudovirus MGRM-F1-023 (HIV-1); experiment: cell-based or functional assay
# [31] = biological target: HIV-1 Env of pseudovirus MGRM-D-011 (HIV-1); experiment: cell-based or functional assay
# Sequence of 4993_K13 (PGT-141) (antibody) (VH): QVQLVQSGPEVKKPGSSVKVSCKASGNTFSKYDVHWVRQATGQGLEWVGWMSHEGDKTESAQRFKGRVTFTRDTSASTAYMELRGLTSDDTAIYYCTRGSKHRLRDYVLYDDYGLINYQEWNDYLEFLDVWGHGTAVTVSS
# Sequence of 4993_K13 (PGT-141) (antibody) (VL): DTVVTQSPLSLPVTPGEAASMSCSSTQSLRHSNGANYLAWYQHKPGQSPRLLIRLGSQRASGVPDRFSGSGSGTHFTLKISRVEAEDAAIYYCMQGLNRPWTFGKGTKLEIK
# Sequence of PGT-142 (4995_E20) (antibody) (VH): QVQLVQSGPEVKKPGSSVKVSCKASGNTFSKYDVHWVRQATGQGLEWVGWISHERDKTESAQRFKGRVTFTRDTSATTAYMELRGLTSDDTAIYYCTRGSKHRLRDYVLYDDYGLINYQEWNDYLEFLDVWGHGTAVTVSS
# Sequence of PGT-145 (4995_P16) (antibody) (VH): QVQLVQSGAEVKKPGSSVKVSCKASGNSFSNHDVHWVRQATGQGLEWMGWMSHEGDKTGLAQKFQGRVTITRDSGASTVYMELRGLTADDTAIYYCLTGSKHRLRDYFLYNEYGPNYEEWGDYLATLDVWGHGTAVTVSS
# Sequence of PGT-145 (4995_P16) (antibody) (VL): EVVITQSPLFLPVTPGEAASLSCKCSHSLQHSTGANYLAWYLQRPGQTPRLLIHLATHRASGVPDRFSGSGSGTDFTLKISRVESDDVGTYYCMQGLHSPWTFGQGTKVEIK
substance,measurement,setting,value
4877_D15 (PGT-122) (antibody),EC50,[1],0.3 µg/mL
same,"IC50, pseudovirus neutralization",[2],0.009 µg/mL
same,"IC50 (µg/mL), pseudovirus neutralization",[3],> 50 µg/mL
same,"IC50 (µg/mL), pseudovirus neutralization",[4],> 50 µg/mL
same,"IC50, pseudovirus neutralization",[5],> 50 µg/mL
same,"IC50, pseudovirus neutralization",[6],1.8 µg/mL
same,"IC50 (ug/mL), pseudovirus neutralization",[7],> 10 µg/mL
same,"IC50, pseudovirus neutralization",[8],> 50 µg/mL
same,"IC50, pseudovirus neutralization",[9],> 10 µg/mL
same,"IC50 (µg/mL), pseudovirus neutralization",[10],0.563 µg/mL
5114_A19 (PGT-128) (antibody),EC50,[1],0.3 µg/mL
same,"IC50 (µg/mL), pseudovirus neutralization",[11],0.138 µg/mL
same,Fold IC50 increase relative to wild-type (pseudovirus neutralization),[12],0.8 fold
same,"IC50, pseudovirus neutralization",[13],0.004 µg/mL
same,"IC50 (µg/mL), pseudovirus neutralization",[14],> 50 µg/mL
same,"IC50, pseudovirus neutralization",[15],0.005 µg/mL
same,"IC50, pseudovirus neutralization",[16],34.8 µg/mL
same,"IC50, pseudovirus neutralization",[17],0.007 µg/mL
same,"IC50 (µg/mL), pseudovirus neutralization",[18],> 50 µg/mL
same,"IC50, pseudovirus neutralization",[19],0.058 µg/mL
same,"IC50 (µg/mL), pseudovirus neutralization",[20],0.036 µg/mL
same,"IC50, pseudovirus neutralization",[21],0.18 µg/mL
same,"IC50, pseudovirus neutralization",[22],> 50 µg/mL
same,"IC50 (µg/mL), pseudovirus neutralization",[23],> 50 µg/mL
same,"IC50 (µg/mL), pseudovirus neutralization",[24],0.007 µg/mL
4993_K13 (PGT-141) (antibody),"IC50 (µg/mL), pseudovirus neutralization",[25],> 50 µg/mL
same,"IC50, pseudovirus neutralization",[26],> 50 µg/mL
same,"IC50 (µg/mL), pseudovirus neutralization",[27],4.69 µg/mL
same,"IC50 (µg/mL), pseudovirus neutralization",[28],> 50 µg/mL
5329_C19 (PGT-136) (antibody),EC50,[1],0.3 µg/mL
same,"IC50 (µg/mL), pseudovirus neutralization",[11],> 50 µg/mL
same,"IC50, pseudovirus neutralization",[13],> 50 µg/mL
same,"IC50 (µg/mL), pseudovirus neutralization",[14],> 50 µg/mL
same,"IC50, pseudovirus neutralization",[15],> 50 µg/mL
same,"IC50, pseudovirus neutralization",[16],> 50 µg/mL
same,"IC50, pseudovirus neutralization",[17],0.006 µg/mL
same,"IC50 (µg/mL), pseudovirus neutralization",[18],> 50 µg/mL
same,"IC50 (ug/mL), pseudovirus neutralization",[7],> 10 µg/mL
same,"IC50, pseudovirus neutralization",[19],> 50 µg/mL
same,"IC50 (µg/mL), pseudovirus neutralization",[20],> 50 µg/mL
same,"IC50, pseudovirus neutralization",[21],> 50 µg/mL
same,"IC50, pseudovirus neutralization",[22],> 50 µg/mL
same,"IC50 (µg/mL), pseudovirus neutralization",[23],> 50 µg/mL
same,"IC50 (µg/mL), pseudovirus neutralization",[24],> 50 µg/mL
4995_P16 (PGT-145) (antibody),"IC50 (µg/mL), pseudovirus neutralization",[25],> 50 µg/mL
same,"IC50, pseudovirus neutralization",[26],30.4 µg/mL
same,"IC50 (µg/mL), pseudovirus neutralization",[27],0.081 µg/mL
same,"IC50 (µg/mL), pseudovirus neutralization",[28],10.9 µg/mL
PGT-141 (4964_G22; 4993_K13) (antibody),"IC50, pseudovirus neutralization",[29],> 50 µg/mL
same,"IC50, pseudovirus neutralization",[30],0.307 µg/mL
same,"IC50, pseudovirus neutralization",[31],> 50 µg/mL
PGT-145 (4995_P16) (antibody),"IC50, pseudovirus neutralization",[29],8.04 µg/mL
same,"IC50, pseudovirus neutralization",[30],5.88 µg/mL
same,"IC50, pseudovirus neutralization",[31],14.7 µg/mL
PGV04 (antibody),"IC50 (µg/mL), pseudovirus neutralization",[25],> 50 µg/mL
same,"IC50 (µg/mL), pseudovirus neutralization",[3],0.071 µg/mL
same,"IC50 (µg/mL), pseudovirus neutralization",[27],0.019 µg/mL
PGT-142 (4995_E20) (antibody),"IC50, pseudovirus neutralization",[29],> 50 µg/mL
same,"IC50, pseudovirus neutralization",[30],0.602 µg/mL
same,"IC50, pseudovirus neutralization",[31],> 50 µg/mL
5343_B08 (PGT-135) (antibody),EC50,[1],0.1 µg/mL
same,"IC50 (µg/mL), pseudovirus neutralization",[11],> 50 µg/mL
same,Fold IC50 increase relative to wild-type (pseudovirus neutralization),[12],0.6 fold
same,"IC50, pseudovirus neutralization",[13],> 50 µg/mL
same,"IC50 (µg/mL), pseudovirus neutralization",[14],> 50 µg/mL
same,"IC50, pseudovirus neutralization",[15],> 50 µg/mL
same,"IC50, pseudovirus neutralization",[16],> 50 µg/mL
same,"IC50, pseudovirus neutralization",[17],0.004 µg/mL
same,"IC50 (µg/mL), pseudovirus neutralization",[18],> 50 µg/mL
same,"IC50 (ug/mL), pseudovirus neutralization",[7],> 10 µg/mL
same,"IC50, pseudovirus neutralization",[19],0.017 µg/mL
same,"IC50 (µg/mL), pseudovirus neutralization",[20],> 50 µg/mL
same,"IC50, pseudovirus neutralization",[21],> 50 µg/mL
same,"IC50, pseudovirus neutralization",[22],> 50 µg/mL
same,"IC50 (µg/mL), pseudovirus neutralization",[23],> 50 µg/mL
same,"IC50 (µg/mL), pseudovirus neutralization",[24],0.01 µg/mL
4995_E20 (PGT-142) (antibody),"IC50 (µg/mL), pseudovirus neutralization",[25],> 50 µg/mL
same,"IC50, pseudovirus neutralization",[26],> 50 µg/mL
same,"IC50 (µg/mL), pseudovirus neutralization",[27],8.17 µg/mL
same,"IC50 (µg/mL), pseudovirus neutralization",[28],> 50 µg/mL
